# Results as given in US20150368311A1 (Sanofi, published 2015).
# Non-standard residues stand in square brackets, D forms with d. No end group written: not given here. Ala(4-thiazolyl) = N[C@@H](Cc1cscn1)C(=O)O; 1Nal = N[C@@H](Cc1cccc2ccccc12)C(=O)O; Phg = N[C@H](C(=O)O)c1ccccc1
# B1: SEQ ID NO: 8 (peptide)
# peptide: [Ala(4-thiazolyl)]SQGTFTSDISKQLESRRAQEFIEWLLATGPESGAPPPS-OH
# modifications: N-terminus assumed
# SMILES: CC[C@H](C)[C@H](NC(=O)[C@H](Cc1ccccc1)NC(=O)[C@H](CCC(=O)O)NC(=O)[C@H](CCC(N)=O)NC(=O)[C@H](C)NC(=O)[C@H](CCCNC(=N)N)NC(=O)[C@H](CCCNC(=N)N)NC(=O)[C@H](CO)NC(=O)[C@H](CCC(=O)O)NC(=O)[C@H](CC(C)C)NC(=O)[C@H](CCC(N)=O)NC(=O)[C@H](CCCCN)NC(=O)[C@H](CO)NC(=O)[C@@H](NC(=O)[C@H](CC(=O)O)NC(=O)[C@H](CO)NC(=O)[C@@H](NC(=O)[C@H](Cc1ccccc1)NC(=O)[C@@H](NC(=O)CNC(=O)[C@H](CCC(N)=O)NC(=O)[C@H](CO)NC(=O)[C@@H](N)Cc1cscn1)[C@@H](C)O)[C@@H](C)O)[C@@H](C)CC)C(=O)N[C@@H](CCC(=O)O)C(=O)N[C@@H](Cc1c[nH]c2ccccc12)C(=O)N[C@@H](CC(C)C)C(=O)N[C@@H](CC(C)C)C(=O)N[C@@H](C)C(=O)N[C@H](C(=O)NCC(=O)N1CCC[C@H]1C(=O)N[C@@H](CCC(=O)O)C(=O)N[C@@H](CO)C(=O)NCC(=O)N[C@@H](C)C(=O)N1CCC[C@H]1C(=O)N1CCC[C@H]1C(=O)N1CCC[C@H]1C(=O)N[C@@H](CO)C(=O)O)[C@@H](C)O
# B2: SEQ ID NO: 7 (peptide)
# peptide: [Ala(4-thiazolyl)]SQGTFTSDVSKQLESRRAQEFIEWLLATGPESGAPPPS-OH
# modifications: N-terminus assumed
# SMILES: CC[C@H](C)[C@H](NC(=O)[C@H](Cc1ccccc1)NC(=O)[C@H](CCC(=O)O)NC(=O)[C@H](CCC(N)=O)NC(=O)[C@H](C)NC(=O)[C@H](CCCNC(=N)N)NC(=O)[C@H](CCCNC(=N)N)NC(=O)[C@H](CO)NC(=O)[C@H](CCC(=O)O)NC(=O)[C@H](CC(C)C)NC(=O)[C@H](CCC(N)=O)NC(=O)[C@H](CCCCN)NC(=O)[C@H](CO)NC(=O)[C@@H](NC(=O)[C@H](CC(=O)O)NC(=O)[C@H](CO)NC(=O)[C@@H](NC(=O)[C@H](Cc1ccccc1)NC(=O)[C@@H](NC(=O)CNC(=O)[C@H](CCC(N)=O)NC(=O)[C@H](CO)NC(=O)[C@@H](N)Cc1cscn1)[C@@H](C)O)[C@@H](C)O)C(C)C)C(=O)N[C@@H](CCC(=O)O)C(=O)N[C@@H](Cc1c[nH]c2ccccc12)C(=O)N[C@@H](CC(C)C)C(=O)N[C@@H](CC(C)C)C(=O)N[C@@H](C)C(=O)N[C@H](C(=O)NCC(=O)N1CCC[C@H]1C(=O)N[C@@H](CCC(=O)O)C(=O)N[C@@H](CO)C(=O)NCC(=O)N[C@@H](C)C(=O)N1CCC[C@H]1C(=O)N1CCC[C@H]1C(=O)N1CCC[C@H]1C(=O)N[C@@H](CO)C(=O)O)[C@@H](C)O
# B3: SEQ ID NO: 10 (peptide)
# peptide: [Ala(4-thiazolyl)]SQGTFTSD[Phg]SKQLESRRAQEFIEWLLATGPESGAPPPS-OH
# modifications: N-terminus assumed
# SMILES: CC[C@H](C)[C@H](NC(=O)[C@H](Cc1ccccc1)NC(=O)[C@H](CCC(=O)O)NC(=O)[C@H](CCC(N)=O)NC(=O)[C@H](C)NC(=O)[C@H](CCCNC(=N)N)NC(=O)[C@H](CCCNC(=N)N)NC(=O)[C@H](CO)NC(=O)[C@H](CCC(=O)O)NC(=O)[C@H](CC(C)C)NC(=O)[C@H](CCC(N)=O)NC(=O)[C@H](CCCCN)NC(=O)[C@H](CO)NC(=O)[C@@H](NC(=O)[C@H](CC(=O)O)NC(=O)[C@H](CO)NC(=O)[C@@H](NC(=O)[C@H](Cc1ccccc1)NC(=O)[C@@H](NC(=O)CNC(=O)[C@H](CCC(N)=O)NC(=O)[C@H](CO)NC(=O)[C@@H](N)Cc1cscn1)[C@@H](C)O)[C@@H](C)O)c1ccccc1)C(=O)N[C@@H](CCC(=O)O)C(=O)N[C@@H](Cc1c[nH]c2ccccc12)C(=O)N[C@@H](CC(C)C)C(=O)N[C@@H](CC(C)C)C(=O)N[C@@H](C)C(=O)N[C@H](C(=O)NCC(=O)N1CCC[C@H]1C(=O)N[C@@H](CCC(=O)O)C(=O)N[C@@H](CO)C(=O)NCC(=O)N[C@@H](C)C(=O)N1CCC[C@H]1C(=O)N1CCC[C@H]1C(=O)N1CCC[C@H]1C(=O)N[C@@H](CO)C(=O)O)[C@@H](C)O
# B4: SEQ ID NO: 6 (peptide)
# peptide: [Ala(4-thiazolyl)]SQGTFTSDYSKQLESRRAQEFIEWLLATGPESGAPPPS-OH
# modifications: N-terminus assumed
# SMILES: CC[C@H](C)[C@H](NC(=O)[C@H](Cc1ccccc1)NC(=O)[C@H](CCC(=O)O)NC(=O)[C@H](CCC(N)=O)NC(=O)[C@H](C)NC(=O)[C@H](CCCNC(=N)N)NC(=O)[C@H](CCCNC(=N)N)NC(=O)[C@H](CO)NC(=O)[C@H](CCC(=O)O)NC(=O)[C@H](CC(C)C)NC(=O)[C@H](CCC(N)=O)NC(=O)[C@H](CCCCN)NC(=O)[C@H](CO)NC(=O)[C@H](Cc1ccc(O)cc1)NC(=O)[C@H](CC(=O)O)NC(=O)[C@H](CO)NC(=O)[C@@H](NC(=O)[C@H](Cc1ccccc1)NC(=O)[C@@H](NC(=O)CNC(=O)[C@H](CCC(N)=O)NC(=O)[C@H](CO)NC(=O)[C@@H](N)Cc1cscn1)[C@@H](C)O)[C@@H](C)O)C(=O)N[C@@H](CCC(=O)O)C(=O)N[C@@H](Cc1c[nH]c2ccccc12)C(=O)N[C@@H](CC(C)C)C(=O)N[C@@H](CC(C)C)C(=O)N[C@@H](C)C(=O)N[C@H](C(=O)NCC(=O)N1CCC[C@H]1C(=O)N[C@@H](CCC(=O)O)C(=O)N[C@@H](CO)C(=O)NCC(=O)N[C@@H](C)C(=O)N1CCC[C@H]1C(=O)N1CCC[C@H]1C(=O)N1CCC[C@H]1C(=O)N[C@@H](CO)C(=O)O)[C@@H](C)O
# B5: SEQ ID NO: 11 (peptide)
# peptide: [Ala(4-thiazolyl)]SQGTFTSD[1Nal]SKQLESRRAQEFIEWLLATGPESGAPPPS-OH
# modifications: N-terminus assumed
# SMILES: CC[C@H](C)[C@H](NC(=O)[C@H](Cc1ccccc1)NC(=O)[C@H](CCC(=O)O)NC(=O)[C@H](CCC(N)=O)NC(=O)[C@H](C)NC(=O)[C@H](CCCNC(=N)N)NC(=O)[C@H](CCCNC(=N)N)NC(=O)[C@H](CO)NC(=O)[C@H](CCC(=O)O)NC(=O)[C@H](CC(C)C)NC(=O)[C@H](CCC(N)=O)NC(=O)[C@H](CCCCN)NC(=O)[C@H](CO)NC(=O)[C@H](Cc1cccc2ccccc12)NC(=O)[C@H](CC(=O)O)NC(=O)[C@H](CO)NC(=O)[C@@H](NC(=O)[C@H](Cc1ccccc1)NC(=O)[C@@H](NC(=O)CNC(=O)[C@H](CCC(N)=O)NC(=O)[C@H](CO)NC(=O)[C@@H](N)Cc1cscn1)[C@@H](C)O)[C@@H](C)O)C(=O)N[C@@H](CCC(=O)O)C(=O)N[C@@H](Cc1c[nH]c2ccccc12)C(=O)N[C@@H](CC(C)C)C(=O)N[C@@H](CC(C)C)C(=O)N[C@@H](C)C(=O)N[C@H](C(=O)NCC(=O)N1CCC[C@H]1C(=O)N[C@@H](CCC(=O)O)C(=O)N[C@@H](CO)C(=O)NCC(=O)N[C@@H](C)C(=O)N1CCC[C@H]1C(=O)N1CCC[C@H]1C(=O)N1CCC[C@H]1C(=O)N[C@@H](CO)C(=O)O)[C@@H](C)O
# B6: SEQ ID NO: 12 (peptide)
# peptide: [Ala(4-thiazolyl)]SQGTFTSDLSKQLESRRAQEFIEWLLATGPESGAPPPS-OH
# modifications: N-terminus assumed
# SMILES: CC[C@H](C)[C@H](NC(=O)[C@H](Cc1ccccc1)NC(=O)[C@H](CCC(=O)O)NC(=O)[C@H](CCC(N)=O)NC(=O)[C@H](C)NC(=O)[C@H](CCCNC(=N)N)NC(=O)[C@H](CCCNC(=N)N)NC(=O)[C@H](CO)NC(=O)[C@H](CCC(=O)O)NC(=O)[C@H](CC(C)C)NC(=O)[C@H](CCC(N)=O)NC(=O)[C@H](CCCCN)NC(=O)[C@H](CO)NC(=O)[C@H](CC(C)C)NC(=O)[C@H](CC(=O)O)NC(=O)[C@H](CO)NC(=O)[C@@H](NC(=O)[C@H](Cc1ccccc1)NC(=O)[C@@H](NC(=O)CNC(=O)[C@H](CCC(N)=O)NC(=O)[C@H](CO)NC(=O)[C@@H](N)Cc1cscn1)[C@@H](C)O)[C@@H](C)O)C(=O)N[C@@H](CCC(=O)O)C(=O)N[C@@H](Cc1c[nH]c2ccccc12)C(=O)N[C@@H](CC(C)C)C(=O)N[C@@H](CC(C)C)C(=O)N[C@@H](C)C(=O)N[C@H](C(=O)NCC(=O)N1CCC[C@H]1C(=O)N[C@@H](CCC(=O)O)C(=O)N[C@@H](CO)C(=O)NCC(=O)N[C@@H](C)C(=O)N1CCC[C@H]1C(=O)N1CCC[C@H]1C(=O)N1CCC[C@H]1C(=O)N[C@@H](CO)C(=O)O)[C@@H](C)O
# What was measured:
# Test in all cases: cell-based or functional assay
# human GLP-1 receptor [1] = target: T1, human GLP-1 receptor (human, UniProt P43220 24-463)
# human glucagon receptor [2] = target: T2, human glucagon receptor (human, UniProt P47871 26-477)
# human GLP-1 receptor [3] = target: T1, human GLP-1 receptor; remark: listed apart in the source
# human glucagon receptor [4] = target: T2, human glucagon receptor; remark: listed apart in the source
# T2 sequence (P47871 26-477): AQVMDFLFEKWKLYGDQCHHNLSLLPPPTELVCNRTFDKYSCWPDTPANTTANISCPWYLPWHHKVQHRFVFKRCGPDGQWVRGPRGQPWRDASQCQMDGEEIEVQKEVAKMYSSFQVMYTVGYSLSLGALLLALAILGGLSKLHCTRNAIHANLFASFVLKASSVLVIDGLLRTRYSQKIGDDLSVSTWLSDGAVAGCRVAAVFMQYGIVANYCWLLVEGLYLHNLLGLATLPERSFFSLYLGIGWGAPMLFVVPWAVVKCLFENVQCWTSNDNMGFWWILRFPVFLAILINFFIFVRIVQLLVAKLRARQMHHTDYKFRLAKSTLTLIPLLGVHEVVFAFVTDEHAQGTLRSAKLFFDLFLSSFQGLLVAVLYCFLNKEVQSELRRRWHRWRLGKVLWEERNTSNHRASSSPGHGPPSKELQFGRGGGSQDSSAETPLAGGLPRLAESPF
binder,measurement,setting,value
B1,"EC50 hGLP-1 R [pM], cAMP formation",human GLP-1 receptor [1],5800 pM
same,"EC50 hGLUC R [pM], cAMP formation",human glucagon receptor [2],2.2 pM
same,"EC50 hGLP-1R, cAMP formation",human GLP-1 receptor [3],5.8 nM
same,"EC50 hGlucagon-R, cAMP formation",human glucagon receptor [4],0.0022 nM
B2,"EC50 hGLP-1 R [pM], cAMP formation",human GLP-1 receptor [1],4190 pM
same,"EC50 hGLUC R [pM], cAMP formation",human glucagon receptor [2],2.4 pM
same,"EC50 hGLP-1R, cAMP formation",human GLP-1 receptor [3],4.19 nM
same,"EC50 hGlucagon-R, cAMP formation",human glucagon receptor [4],0.0024 nM
B3,"EC50 hGLP-1 R [pM], cAMP formation",human GLP-1 receptor [1],45000 pM
same,"EC50 hGLUC R [pM], cAMP formation",human glucagon receptor [2],6 pM
same,"EC50 hGLP-1R, cAMP formation",human GLP-1 receptor [3],45 nM
same,"EC50 hGlucagon-R, cAMP formation",human glucagon receptor [4],0.006 nM
B4,"EC50 hGLP-1 R [pM], cAMP formation",human GLP-1 receptor [1],9300 pM
same,"EC50 hGLUC R [pM], cAMP formation",human glucagon receptor [2],0.5 pM
same,"EC50 hGLP-1R, cAMP formation",human GLP-1 receptor [3],9.3 nM
same,"EC50 hGlucagon-R, cAMP formation",human glucagon receptor [4],0.0005 nM
B5,"EC50 hGLP-1 R [pM], cAMP formation",human GLP-1 receptor [1],11700 pM
same,"EC50 hGLUC R [pM], cAMP formation",human glucagon receptor [2],0.9 pM
same,"EC50 hGLP-1R, cAMP formation",human GLP-1 receptor [3],11.7 nM
same,"EC50 hGlucagon-R, cAMP formation",human glucagon receptor [4],0.0009 nM
B6,"EC50 hGLP-1 R [pM], cAMP formation",human GLP-1 receptor [1],20000 pM
same,"EC50 hGLUC R [pM], cAMP formation",human glucagon receptor [2],1 pM
same,"EC50 hGLP-1R, cAMP formation",human GLP-1 receptor [3],20 nM
same,"EC50 hGlucagon-R, cAMP formation",human glucagon receptor [4],0.001 nM
